The source of these data is patent US20240228542A1, “LYTIC DOMAIN FUSION CONSTRUCTS, CHECKPOINT INHIBITORS, AND METHODS OF MAKING AND USING SAME” (A28 Therapeutics Inc., priority 2020, published 2024).

Experiment [1] deals with OVCAR-3 xenograft. Kind of experiment: OVCAR-3 ovarian cancer xenograft. Type of experiment: in vivo, Nu/Nu mice. To be noted: for tumor volume: OVCAR-3 xenograft, CLIP71 2 mg/kg, cisplatinum 10 mg/kg. The procedure: In brief, Nu/Nu female mice, inbred strain, age 5 weeks (Harlan-Sprague Dawley) were injected subcutaneously with a NIH:OVCAR-3 cells/Matrigel suspension (4.6×10^6 cells/mouse). Treatment was started on day 33 after tumor cell injection when the tumors were established and continued on days 41 and 47. The doses for the 3 weekly injections were 0.02, 0.2 and 2 mg/kg body weight, given as a single bolus intravenous injection via lateral tail vein administered once a week for three weeks on days 33, 41 and 47. Necropsies were conducted on day 52. Data are presented as mean […]SEM. Arrows show dosing.
A group of 9 tumor bearing mice was sacrificed on day 33 and served as baseline group. All mice were necropsied 51-52 days after tumor cell injection. Tumor volumes and bodyweights were recorded twice weekly during the study, as well as overall veterinarian examination of mice was conducted.
Primary tumors, liver, kidney, pancreas, heart, lung, and spleen were collected, fixed in formalin and prepared for histological evaluation. Tumor weights were measured at necropsy, part of the tumors were frozen at −80° C. for LH/CG and LHRH receptor assay determination.
As a biomarker for drug activity, CA 125 was determined in serum, collected from each individual mouse at necropsy using a Enzyme Linked Immunoassay for quantitative determination of ovarian cancer antigen CA125 (Assay kit Genway, Biotech, Inc. San Diego, CA, Catalog #40-052-115009, #BC-1013 according to the manufacturer).
LHRH receptor levels were assessed from formalin fixed tumors. Quantitative immunoperoxidase image analysis was conducted with the Ventana Image Analysis System (VIAS) adjunctive computer assisted image analysis system functionally connected to an interactive microscope (Axio Imager). The quantitative analysis was conducted with the program for quantification of Her2/neu receptor that included morphometric and colorimetric analysis. Receptor status results were reported as percentage of cells showing positive staining of the LHRH receptors under the following criteria: 0 non-immunoreactive, 1+: 1-25% positive, 2+: 26-50% positive, 3+: 51-75% positive cells.

Experiment [2] relates to LNCaP. Briefly: Cytotoxicity in LNCaP prostate cancer cells. It counts as cell-based. To be noted: LNCaP prostate cancer cell line; read-out: IC50 in Human Cancer Cell Lines. On the procedure: (§1) MDA-MB-435S.luc cells were grown in Leibovitz's L 15 medium, 10% fetal bovine serum, 0.01 mg/ml bovine insulin, 100 IU/ml penicillin, 100 microg/ml streptomycin. The cells were cultured in tight closed flasks. The incubations were conducted using 96 well plates at 10,000 cells per well. Cells were typically seeded into 96 well plates and media was replaced after 48 hours of incubation. Each assay was conducted at increasing concentrations of 0, 0.001, 0.01, 0.05, 0.1, 0.5, 1, 2, 5, 10 and 100 micromolar doses of lytic peptide-binding domain conjugate. Each lytic peptide-binding domain conjugate provided in lyophilized form and was freshly dissolved in saline and added to cells. The duration of incubation was typically 24 h, and cell viability assays were conducted using formazan conversion assays (MTT assay). Controls contained saline or 0.1% triton as reference for 0 and 100% cell death, respectively.
(§2) To ascertain the IC50 of various fusion constructs on different human cancer cell lines compared to cisplatinum, IC50 of fusion constructs were evaluated as in Table 3.

Experiment [3] has as its system SKOV-3. Briefly: Cytotoxicity in SKOV-3 ovarian cancer cells. The conditions noted are these: SKOV-3 ovarian cancer cell line; read-out: IC50 in Human Cancer Cell Lines. Type of experiment: cell-based. The procedure:
as §1, §2

Experiment [4] concerns AN3-CA. Briefly: Cytotoxicity in AN3-CA endometrial cancer cells. Type of experiment: cell-based. The conditions noted are these: AN3-CA endometrial cancer cell line; read-out: IC50 in Human Cancer Cell Lines. The procedure:
as §1, §2

Experiment [5] concerns OVCAR-3. Kind of experiment: Cytotoxicity in OVCAR-3 ovarian cancer cells. The conditions noted are these: OVCAR-3 ovarian cancer cell line; read-out: IC50 in Human Cancer Cell Lines. It counts as cell-based. On the procedure: as §1, §2
Experiment [6] has as its system MDA-MB-435S cells. The conditions noted are these: reported; cited from earlier work.
Experiment [7] deals with T1, luteinizing hormone-releasing hormone receptor (LHRH-R), on murine cancer cell lines (mouse) (UniProt Q01776).
T1 sequence (looked up): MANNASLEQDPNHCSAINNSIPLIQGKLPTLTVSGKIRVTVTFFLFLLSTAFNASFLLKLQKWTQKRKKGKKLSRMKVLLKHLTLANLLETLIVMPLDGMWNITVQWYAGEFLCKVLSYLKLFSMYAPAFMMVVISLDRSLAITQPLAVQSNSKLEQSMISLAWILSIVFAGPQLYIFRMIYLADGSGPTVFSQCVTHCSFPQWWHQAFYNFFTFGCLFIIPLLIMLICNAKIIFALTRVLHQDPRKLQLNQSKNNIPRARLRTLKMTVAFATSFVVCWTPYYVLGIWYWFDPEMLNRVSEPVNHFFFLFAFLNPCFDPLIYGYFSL
Briefly: cell-based or functional assay.

Experiment [8] concerns the target T2, luteinizing hormone-releasing hormone (LHRH) receptor, on human cancer cell lines (human) (UniProt P30968).
T2 sequence (looked up): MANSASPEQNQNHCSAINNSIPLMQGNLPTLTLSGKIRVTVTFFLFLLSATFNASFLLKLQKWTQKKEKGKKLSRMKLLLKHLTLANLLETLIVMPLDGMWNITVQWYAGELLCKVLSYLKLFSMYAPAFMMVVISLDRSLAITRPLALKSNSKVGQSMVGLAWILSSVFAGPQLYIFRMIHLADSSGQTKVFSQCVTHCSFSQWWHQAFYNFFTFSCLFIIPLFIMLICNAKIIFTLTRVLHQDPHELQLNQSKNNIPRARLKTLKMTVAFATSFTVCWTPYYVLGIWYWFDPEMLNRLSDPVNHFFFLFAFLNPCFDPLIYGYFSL
Briefly: cell-based or functional assay.

Experiment [9] deals with chorionic gonadotrophin (CG) receptor, on MDA-MB-435S.luc cells (human) (UniProt P22888). Briefly: cell-based or functional assay.

As usually defined, the IC50 is the concentration at which inhibition is half-maximal.

On to `N.N.[Cl][Pt][Cl]` [Cisplatinum, reference compound], for which the tumor weights result in experiment [1] (OVCAR-3 xenograft at necropsy) was “not effective in reducing tumor weights”. Also, the tumor volume entry in experiment [1] was “no reduction in tumor volume”; in experiment [1] (listed as cisplatinum) it was “tumor growth was observed”. Also, the IC50 in experiment [2] was 19.9 ± 1.4 µM; in experiment [3] it was 321 ± 10 µM; in experiment [4], 11.8 ± 0.16 µM; in experiment [5] it was 184 µM.
As to `COc1cccc2c1C(=O)c1c(O)c3c(c(O)c1C2=O)C[C@@](O)(C(=O)CO)C[C@@H]3O[C@H]1C[C@H](N)[C@H](O)[C@H](C)O1` [doxorubicin], the “time to destroy human melanoma cells in vitro” value in [6] is 4 h.
As for Phor18-LHRH (338613) (peptide), in experiment [7], the IC50 of cell viability, murine ovarian cancer cell lines, 72 hours was 1 to 1.3 µM; the IC50 of cytotoxicity (CellTiter Glo), EMT-6 cells, 4 h is 5.8 µM; the IC50 of cytotoxicity (CellTiter Glo), EMT-6 cells, 8 h turned out to be 5.7 µM; the IC50 of cytotoxicity (CellTiter-Glo), 2C12 cells, 24 h was 1.02 µM. For the same compound, in experiment [7], the IC50 of cytotoxicity (CellTiter-Glo), ID8 cells, 24 h was 1.37 µM; the IC50 of cytotoxicity (CellTiter-Glo), IF5 cells, 24 h turned out to be 1.01 µM; the IC50 of cytotoxicity (CellTiter-Glo), IG10 cells, 24 h was 1.03 µM; the IC50 of cytotoxicity (CellTiter-Glo), cell line printed as 242, 24 h worked out at 1.38 µM. Also, in experiment [8], the IC50 of cytotoxicity (MTT), MDA-MB-435S cells, 0.5 hour is 1.2 µM; the IC50 of cytotoxicity (MTT), MDA-MB-435S cells, 1 hour is 0.6 µM; the IC50 of cytotoxicity (MTT), OVCAR-3 cells, increasing incubation time, value 1 of 7 came out at 6.7 µM; the IC50 of cytotoxicity (MTT), OVCAR-3 cells, increasing incubation time, value 2 of 7 was determined as 5.6 µM. Further, in [8], the IC50 of cytotoxicity (MTT), OVCAR-3 cells, increasing incubation time, value 3 of 7 was found to be 5.3 µM; the IC50 of cytotoxicity (MTT), OVCAR-3 cells, increasing incubation time, value 4 of 7 stood at 1.6 µM; the IC50 of cytotoxicity (MTT), OVCAR-3 cells, increasing incubation time, value 5 of 7 was 1.5 µM; the IC50 of cytotoxicity (MTT), OVCAR-3 cells, increasing incubation time, value 6 of 7 was 0.5 µM. This compound returned an IC50 of cytotoxicity (MTT), OVCAR-3 cells, increasing incubation time, value 7 of 7 in [8] of 0.5 µM.
In experiment [9], Phor21-βCG-ala (323033) (peptide) had an IC50 of cytotoxicity, MDA-MB-435S.luc cells (carry CG receptors) of 2.3 µM.
